Numbered stars: 1 amine (or outer) side, 2 acyl side, 3 side chain; on linkers, the order of the positions; unused ones are H or OH. Bridge positions count the residues as written; N and C are the ends. Square brackets hold non-standard residues; d marks the D form. Side chains are listed from the residue outwards. Ends that are not written are not given here. * marks the point of attachment. C20 diacid = O=C(O)CCCCCCCCCCCCCCCCCCC(=O)*; γGlu = O=C(O)[C@H](CCC(=O)[*:2])N[*:1]
T1: human calcitonin receptor (human, UniProt P30988 25-474)
T1 sequence (looked up): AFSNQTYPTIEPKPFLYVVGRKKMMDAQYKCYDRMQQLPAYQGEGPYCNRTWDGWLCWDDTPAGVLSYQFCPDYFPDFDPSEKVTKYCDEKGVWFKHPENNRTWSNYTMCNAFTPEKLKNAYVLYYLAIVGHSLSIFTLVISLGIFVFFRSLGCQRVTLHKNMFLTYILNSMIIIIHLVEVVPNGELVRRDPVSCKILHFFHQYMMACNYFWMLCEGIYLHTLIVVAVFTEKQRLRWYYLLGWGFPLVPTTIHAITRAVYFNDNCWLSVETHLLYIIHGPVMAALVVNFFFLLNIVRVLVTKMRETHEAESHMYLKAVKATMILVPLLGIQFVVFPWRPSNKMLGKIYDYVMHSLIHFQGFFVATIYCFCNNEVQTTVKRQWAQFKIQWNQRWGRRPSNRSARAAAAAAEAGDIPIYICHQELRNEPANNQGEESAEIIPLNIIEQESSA

T2: human amylin 3(a) receptor (human calcitonin receptor co-expressed with RAMP-3) (human, UniProt P30988 25-474; O60896 24-148, limits assumed)
T2 sequence (looked up) 1: T1 sequence (looked up)
T2 sequence (looked up) 2: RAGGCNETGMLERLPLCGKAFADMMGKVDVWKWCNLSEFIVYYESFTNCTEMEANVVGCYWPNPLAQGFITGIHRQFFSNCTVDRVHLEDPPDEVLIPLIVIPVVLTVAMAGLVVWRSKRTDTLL

T3: rat calcitonin receptor (rat, UniProt P32214 25-516)
T3 construct: whole, on cells; In cell membranes prepared from transiently transfected BHK tk'ts 13 cells (Assay VIII); also called rCTR; rat calcitonin (a) receptor
T3 sequence (looked up): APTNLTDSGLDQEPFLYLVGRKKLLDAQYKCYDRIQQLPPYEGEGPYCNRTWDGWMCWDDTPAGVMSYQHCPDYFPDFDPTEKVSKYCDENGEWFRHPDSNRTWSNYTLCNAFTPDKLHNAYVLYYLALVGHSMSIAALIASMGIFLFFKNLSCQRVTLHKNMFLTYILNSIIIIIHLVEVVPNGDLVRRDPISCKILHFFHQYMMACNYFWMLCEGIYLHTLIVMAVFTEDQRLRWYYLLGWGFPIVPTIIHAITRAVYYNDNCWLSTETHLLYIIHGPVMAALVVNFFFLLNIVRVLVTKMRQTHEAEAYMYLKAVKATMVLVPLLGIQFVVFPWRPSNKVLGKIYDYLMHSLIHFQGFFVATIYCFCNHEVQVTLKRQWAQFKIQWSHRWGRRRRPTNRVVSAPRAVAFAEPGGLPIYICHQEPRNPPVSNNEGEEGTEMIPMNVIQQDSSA

T4: rat amylin receptor (rat calcitonin receptor + rat RAMP 3) (rat, UniProt P32214 25-516; Q9JJ73 23-147)
T4 construct: whole, on cells; Receptor complex in cell membranes prepared from transiently transfected BHK tk'ts 13 cells (Assay VI); also called rAmylin-R; rat amylin 3(a) receptor
T4 sequence (looked up) 1: T3 sequence (looked up)
T4 sequence (looked up) 2: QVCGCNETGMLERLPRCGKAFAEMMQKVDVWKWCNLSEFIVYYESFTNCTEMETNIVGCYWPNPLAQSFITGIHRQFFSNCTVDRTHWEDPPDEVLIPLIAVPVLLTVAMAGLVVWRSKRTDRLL

B1: N^ε1-[(4S)-4-carboxy-4-(19-carboxynonadecanoylamino)butanoyl]-[Glu14,Arg17,Pro21,Pro27,Arg35]-h-amylin (peptide)
peptide: K([γGlu-C20 diacid])CNTATCATQRLAEFLRHSSPNFGAIPSSTNVGSRTY-NH2
modifications: disulfide 2-7; N-terminus assumed
SMILES: CC[C@H](C)[C@H](NC(=O)[C@H](C)NC(=O)CNC(=O)[C@H](Cc1ccccc1)NC(=O)[C@H](CC(N)=O)NC(=O)[C@@H]1CCCN1C(=O)[C@H](CO)NC(=O)[C@H](CO)NC(=O)[C@H](Cc1c[nH]cn1)NC(=O)[C@H](CCCNC(=N)N)NC(=O)[C@H](CC(C)C)NC(=O)[C@H](Cc1ccccc1)NC(=O)[C@H](CCC(=O)O)NC(=O)[C@H](C)NC(=O)[C@H](CC(C)C)NC(=O)[C@H](CCCNC(=N)N)NC(=O)[C@H](CCC(N)=O)NC(=O)[C@@H](NC(=O)[C@H](C)NC(=O)[C@@H]1CSSC[C@H](NC(=O)[C@@H](N)CCCCNC(=O)CC[C@H](NC(=O)CCCCCCCCCCCCCCCCCCC(=O)O)C(=O)O)C(=O)N[C@@H](CC(N)=O)C(=O)N[C@@H]([C@@H](C)O)C(=O)N[C@@H](C)C(=O)N[C@@H]([C@@H](C)O)C(=O)N1)[C@@H](C)O)C(=O)N1CCC[C@H]1C(=O)N[C@@H](CO)C(=O)N[C@@H](CO)C(=O)N[C@H](C(=O)N[C@@H](CC(N)=O)C(=O)N[C@H](C(=O)NCC(=O)N[C@@H](CO)C(=O)N[C@@H](CCCNC(=N)N)C(=O)N[C@H](C(=O)N[C@@H](Cc1ccc(O)cc1)C(N)=O)[C@@H](C)O)C(C)C)[C@@H](C)O
notes: h-amylin derivative; disulfide bridge and C-terminal amide as told for human amylin; also called compound 51
B2: N^-1-[(4S)-4-carboxy-4-(19-carboxynonadecanoylamino)butanoyl]-Gly[Arg1,Arg17,Pro21,Pro27,His35]-h-amylin (peptide)
peptide: {C20 diacid-γGlu}-GRCNTATCATQRLANFLRHSSPNFGAIPSSTNVGSHTY-NH2
modifications: disulfide 3-8
SMILES: CC[C@H](C)[C@H](NC(=O)[C@H](C)NC(=O)CNC(=O)[C@H](Cc1ccccc1)NC(=O)[C@H](CC(N)=O)NC(=O)[C@@H]1CCCN1C(=O)[C@H](CO)NC(=O)[C@H](CO)NC(=O)[C@H](Cc1c[nH]cn1)NC(=O)[C@H](CCCNC(=N)N)NC(=O)[C@H](CC(C)C)NC(=O)[C@H](Cc1ccccc1)NC(=O)[C@H](CC(N)=O)NC(=O)[C@H](C)NC(=O)[C@H](CC(C)C)NC(=O)[C@H](CCCNC(=N)N)NC(=O)[C@H](CCC(N)=O)NC(=O)[C@@H](NC(=O)[C@H](C)NC(=O)[C@@H]1CSSC[C@H](NC(=O)[C@H](CCCNC(=N)N)NC(=O)CNC(=O)CC[C@H](NC(=O)CCCCCCCCCCCCCCCCCCC(=O)O)C(=O)O)C(=O)N[C@@H](CC(N)=O)C(=O)N[C@@H]([C@@H](C)O)C(=O)N[C@@H](C)C(=O)N[C@@H]([C@@H](C)O)C(=O)N1)[C@@H](C)O)C(=O)N1CCC[C@H]1C(=O)N[C@@H](CO)C(=O)N[C@@H](CO)C(=O)N[C@H](C(=O)N[C@@H](CC(N)=O)C(=O)N[C@H](C(=O)NCC(=O)N[C@@H](CO)C(=O)N[C@@H](Cc1c[nH]cn1)C(=O)N[C@H](C(=O)N[C@@H](Cc1ccc(O)cc1)C(N)=O)[C@@H](C)O)C(C)C)[C@@H](C)O
notes: h-amylin derivative, N-terminally extended by one residue; disulfide bridge and C-terminal amide as told for human amylin; also called compound 47
B3: N^ε1-[(4S)-4-carboxy-4-[[(4S)-4-carboxy-4-(19-carboxynonadecanoylamino)butanoyl]amino]butanoyl]-[D-Asp14,Arg17,Pro21,Pro27,Arg35]-h-amylin (peptide)
peptide: K([γGlu-γGlu-C20 diacid])CNTATCATQRLA[dD]FLRHSSPNFGAIPSSTNVGSRTY-NH2
modifications: disulfide 2-7; N-terminus assumed
SMILES: CC[C@H](C)[C@H](NC(=O)[C@H](C)NC(=O)CNC(=O)[C@H](Cc1ccccc1)NC(=O)[C@H](CC(N)=O)NC(=O)[C@@H]1CCCN1C(=O)[C@H](CO)NC(=O)[C@H](CO)NC(=O)[C@H](Cc1c[nH]cn1)NC(=O)[C@H](CCCNC(=N)N)NC(=O)[C@H](CC(C)C)NC(=O)[C@H](Cc1ccccc1)NC(=O)[C@@H](CC(=O)O)NC(=O)[C@H](C)NC(=O)[C@H](CC(C)C)NC(=O)[C@H](CCCNC(=N)N)NC(=O)[C@H](CCC(N)=O)NC(=O)[C@@H](NC(=O)[C@H](C)NC(=O)[C@@H]1CSSC[C@H](NC(=O)[C@@H](N)CCCCNC(=O)CC[C@H](NC(=O)CC[C@H](NC(=O)CCCCCCCCCCCCCCCCCCC(=O)O)C(=O)O)C(=O)O)C(=O)N[C@@H](CC(N)=O)C(=O)N[C@@H]([C@@H](C)O)C(=O)N[C@@H](C)C(=O)N[C@@H]([C@@H](C)O)C(=O)N1)[C@@H](C)O)C(=O)N1CCC[C@H]1C(=O)N[C@@H](CO)C(=O)N[C@@H](CO)C(=O)N[C@H](C(=O)N[C@@H](CC(N)=O)C(=O)N[C@H](C(=O)NCC(=O)N[C@@H](CO)C(=O)N[C@@H](CCCNC(=N)N)C(=O)N[C@H](C(=O)N[C@@H](Cc1ccc(O)cc1)C(N)=O)[C@@H](C)O)C(C)C)[C@@H](C)O
notes: residue 14 is D-aspartic acid (printed 14d)

Key:
[1] = target: T1, human calcitonin receptor; assay: cell-based or functional assay
[2] = target: T2, human amylin 3(a) receptor (human …); assay: cell-based or functional assay
rat calcitonin receptor = target: T3, rat calcitonin receptor; assay: SPA competition binding, displacement of 125I-Calcitonin from membranes of BHK tk'ts 13 cells with rat calcitonin receptor (Assay VIII)
[3] = target: T4, rat amylin receptor (rat calcitonin …); assay: SPA competition binding, displacement of 125I-rat amylin from membranes of BHK tk'ts 13 cells with rat calcitonin receptor + rat RAMP 3 (Assay VI)
Procedure: The binding assay was performed using scintillation proximity assay (SPA) beads (RPNQ0001) from PerkinElmer and cell membranes from the Amylin 3(a)/CRE-luc cells (as described in Assay (II)) were used. Membranes were prepared in the following way; the cells were rinsed with PBS and incubated with Versene for approximately 5 min before harvesting. The cells were flushed with PBS and the cell-suspension was centrifuged for 5 min at 1000 rpm. Cells were homogenized (ultrathurrax) in a buffer containing 20 mM Na-HEPES and 10 mM EDTA (pH 7.4) and centrifuged at 20.000 rpm for 15 min. The resulting pellet was resuspended, homogenized and centrifuged (20.000 rpm, 15 min) in a buffer containing 20 mM Na-HEPES and 0.1 mM EDTA (pH 7.4, buffer 2). The resulting pellet was resuspended in buffer 2 and protein concentration was measured (BCA protein Assay, Pierce). The homogenate was kept cold during the whole procedure. The membranes were kept at −80° C. until use. The assay was performed in a 384 well Optiplate (PerkinElmer) in a total volume of 40 ul. Membranes were mixed with SPA beads. Final concentration of membranes 35 ng/μL final and SPA beads was 0.05 mg/well. Test-compounds were dissolved in DMSO and further diluted in assay buffer (50 mM Hepes, pH 7.4, 1 mM CaCl2, 5 mM MgCl₂, 0.1% OA and 0.02% Tween20). […] The final mixture was incubated with shaking at 400 rpm for 120 min at 25° C. prior to centrifugation (1500 rpm, 10 min). Samples were analyzed on TopCounter™ (Packard). The IC₅₀ was calculated using (one site binding competition analysis) GraphPad Prism5 as a measure of receptor affinity.
Cells were grown in DMEM with 10% FBS and 1% Pen/Strep. Approximately 48 hours after transfection, the cells were harvested and membranes were prepared.

Row | Binder | hCTR funct. EC50 [1] [nM] | Ratio hCT/hAmylin funct. [2] | IC50 (rat calcitonin receptor) [nM] | IC50 [3] [nM]
1 | B1 | 5.22 | 14 |  | 
2 | B2 | 1.32 | 6 |  | 
3 | B3 |  |  | 536 | 1.69
